# Results as given in patent US20230079150A1, “METHODS FOR PREVENTION OR TREATMENT OF VIRUS-INDUCED ORGAN INJURY OR FAILURE WITH IL-22 DIMER” (priority 2020, published 2023).
# Key:
# IL-22Ra1 = IL-22Ra1 receptor immunofluorescence in HUVECs; format: cell-based, human
# Method: HUVECs were fixed in 3.5% formaldehyde in PBS for 10 minutes. Cells were then blocked in 1% BSA in PBS for one hour. Cells were then incubated overnight in primary antibody for IL-22Ra1 (Invitrogen, Carlsbad, Calif.) diluted 1:100 in 1% BSA in PBS. Cells were then washed with PBS 3 times. Cells were incubated with secondary antibody, goat anti-mouse Alexa Fluor 488 (1:500; Invitrogen, A28175) diluted 1:500 in 1% BSA in PBS along with 0.1 μg/ml of 4,6 diamidino-2phylindole (DAPI) (Sigma) for one hour, followed by three washes in PBS. Cells were then cover slipped with Fluoro Gel mounting medium and imaged on an EVOS fluorescence microscope. Fluorescence intensity was quantified using ImageJ.
# HUVECs = assay: Real-time quantitative RT-PCR of mRNA levels in HUVECs; format: cell-based, human
# Method: RNA was isolated with Trizol (Invitrogen) and used as a template for reverse transcriptase (reverse transcriptase mix sold under the trademark ISCRIPT® RT supermix, Bio-Rad). mRNAs were quantified by real-time PCR with the cyanine nucleic acid dye IQ SYBR® Green Supermix (Bio-Rad), and normalized against PPIA mRNA as the internal control gene. Relative changes in expression were calculated using the […] as established in prior studies. (Livak K J, Schmittgen T D. “Analysis of relative gene expression data using real-time quantitative PCR and the 2^−ΔΔCT method.” Methods. 2001; 25(4):402-8).
# C57BL/6 mice = assay: LPS acute lung injury mouse model: BAL cell counts; format: in vivo; settings: for BAL total cell counts: F-652 4 μg tail vein at 30 min
# Method: After approval from the Tulane University, Institutional Animal Care and Use Committee (protocol ID 607), equal numbers of male and female, 6-8 week old C57BL/6 mice (Charles River Laboratories, Cambridge, Mass.) were given acute lung injury (ALI) via intra-tracheally administered LPS. After obtaining appropriate depth of anesthesia using isoflurane, the high-dose LPS group (HDG) received 100 μg of LPS administered intra-tracheally. Approximately 30 minutes after LPS administration, 4 μg of F-652 was administered via tail vein injection (n=11), then compared to animals receiving sham injection (n=8) with phosphate-buffered saline (PBS). In the low-dose LPS group (LDG), 33.3 μg of LPS was administered intra-tracheally. F-652 was again administered at 30 minutes (n=9) and compared to sham injected animals (n=9). The Interleukin-22:Fc (F-652) protein is a recombinant fusion protein (F-652) (Evive Biotech, Shanghai, China) with two human IL-22 molecules linked to the Fc portion of human immunoglobulin G2, which extends the half-life of the molecule.
# Euthanasia and bronchoalveolar lavage (BAL) was carried out on post-injury day 4. After obtaining appropriate levels of anesthesia with inhaled isoflurane, the trachea was cannulated using a 26 gauge needle and BAL was performed with three successive washes using 1 mL of PBS. Next, a small segment of the left lower lobe was removed and saved for RNA isolation. Finally, 1 cc of 4% paraformaldehyde was injected to the lung for fixation.
# The BAL fluid was then centrifuged at 500×gravity for 5 minutes. Cells were obtained from the BAL after centrifuge and cell counts performed. Cells were then affixed to glass slides and stained with Wright's stain. To quantify protein in the BAL supernatant, a Bradford protein assay (Bio-Rad Laboratories) was performed. Protein was quantified by measuring absorbance at 595 nm on a BMG Labtech FLUOstar Optima plate reader. In addition, the BAL supernatant was used to measure pro-inflammatory cytokines using a Milliplex Mouse Cytokine/Chemokine Magnetic Bead Panel (Millipore Sigma). The 32 cytokines measured included Eotaxin, Granulocyte Colony-Stimulating Factor (G-CSF), Granulocyte-Monocyte Colony-Stimulating Factor (GM-CSF), Interferon-γ (IFN-γ), Interleukin-1α (IL-1α), IL-1, IL-2, IL-3, IL-4, IL-5, IL-6, IL-7, IL-9, IL-10, IL-12 (p40 segment), IL-12 (p70 segment), IL-13, IL-15, IL-17, Interferon-γ induced protein 10 (IP-10), keratinocyte chemoattractant (KC), leukemia inhibitory factor (LIF), lipopolysaccharide-induced CXC chemokine (LIX), monocyte chemoattractant protein-1 (MCP-1), macrophage colony-stimulating factor (M-CSF), monokine induced by gamma-interferon (MIG), MIP-1α, macrophage inflammatory protein-1β/CCL4 (MIP-1β), MIP-2, regulated upon activation, normal T-cell expressed and presumably secreted (RANTES), tumor necrosis factor-α (TNF-α), vascular endothelial growth factor (VEGF). Human IL-22 was measured using an IL-22 Human ELISA kit (ThermoFisher Scientific). Mouse IL-22 was measured using an IL-22 Mouse/Rat Quantikine ELISA kit (R&D Systems).
# [1] = LPS and F-652 co-exposed, LPS only 1.49
# [2] = LPS and F-652 compared to control
molecule,measurement,setting,value
"F-652: recombinant IL-22 dimer consisting of two monomeric subunits each comprising a sequence shown in SEQ ID NO: 24 (protein, homodimer) chain 1: APISSHCRLDKSNFQQPYITNRTFMLAKEASLADNNTDVRLIGEKLFHGVSMSERCYLMKQVLNFTLEEVLFPQSDRFQPYMQEVVPFLARLSNRLSTCHIEGDDLHIQRNVQKLKDTVKKLGESGEIKAIGELDLLFMSLRNACIGSGGGSGGGGSGGGGSVECPPCPAPPVAGPSVFLFPPKPKDTLMISRTPEVTCVVVDVSHEDPEVQFNWYVDGVEVHNAKTKPREEQFNSTFRVVSVLTVVHQDWLNGKEYKCKVSNKGLPASIEKTISKTKGQPREPQVYTLPPSREEMTKNQVSLTCLVKGFYPSDIAVEWESNGQPENNYKTTPPMLDSDGSFFLYSKLTVDKSRWQQGNVFSCSVMHEALHNHYTQKSLSLSPGK chain 2: APISSHCRLDKSNFQQPYITNRTFMLAKEASLADNNTDVRLIGEKLFHGVSMSERCYLMKQVLNFTLEEVLFPQSDRFQPYMQEVVPFLARLSNRLSTCHIEGDDLHIQRNVQKLKDTVKKLGESGEIKAIGELDLLFMSLRNACIGSGGGSGGGGSGGGGSVECPPCPAPPVAGPSVFLFPPKPKDTLMISRTPEVTCVVVDVSHEDPEVQFNWYVDGVEVHNAKTKPREEQFNSTFRVVSVLTVVHQDWLNGKEYKCKVSNKGLPASIEKTISKTKGQPREPQVYTLPPSREEMTKNQVSLTCLVKGFYPSDIAVEWESNGQPENNYKTTPPMLDSDGSFFLYSKLTVDKSRWQQGNVFSCSVMHEALHNHYTQKSLSLSPGK",IL-22Ra1 receptor expression compared to control,IL-22Ra1; F-652 alone,did not result in a difference
same,IL-22Ra1 receptor relative expression,"IL-22Ra1; LPS and F-652, control 1.00",0.69 RE
same,ADAM17 levels,"HUVECs; F-652 alone, control 1.09",1.14 RE
same,MMP-7 levels,"HUVECs; F-652 alone, control 1.11",1.23 RE
same,levels of any matrix metalloproteinase,HUVECs; F-652 only,did not change
same,VE-CAD RNA levels,"HUVECs; F-652 only exposed, control 1.06",1.01 RE
same,ADAM17 levels,"HUVECs; LPS and F-652, control 1.09, LPS 2.42",1.22 RE
same,MMP-7 levels,"HUVECs; LPS and F-652, control 1.11, LPS 2.99",1.53 RE
same,MYD88 RNA expression,"HUVECs; LPS and F-652 co-exposed, LPS only 1.48",0.72 RE
same,Exostosin-1 level,HUVECs; [1],0.82 RE
same,TIMP2 level,HUVECs; [1],0.82 RE
same,IRAK4 mRNA expression,"HUVECs; LPS and F-652 co-exposed, LPS only 1.51",0.86 RE
same,Exostosin-2 level,"HUVECs; LPS and F-652 co-exposed, LPS only 1.88",0.99 RE
same,TIRAP mRNA expression,"HUVECs; LPS and F-652 co-exposed, LPS only 1.92",0.82 RE
same,VE-CAD RNA levels,"HUVECs; LPS and F-652 co-exposed, control 1.06, LPS only 1.96",0.81 RE
same,expression of MMP-9,HUVECs; [2],did not change
same,expression of Matrix Metalloproteinase-1 (MMP-1),HUVECs; [2],did not significantly change
same,relative expression of MMP-2,HUVECs; [2],lower relative expression
same,relative expression of MMP-14,HUVECs; [2],lower relative expression
same,MMP-9 relative expression,HUVECs; LPS and F-652 exposed compared to LPS exposed (2.99),1.53 RE
same,TLR4 mRNA,HUVECs; all comparisons,not significantly different
same,"Levels of TRAM, TRAF6, IRAK1, and TRIF",HUVECs; all group comparisons,not significantly different
same,Tissue inhibitor of metalloproteinase-1 (TIMP1),HUVECs; among various HUVEC exposure groups,not different
same,BAL total cell counts,"C57BL/6 mice; high-dose LPS (100 μg intra-tracheal), day 4, sham 3.15×10^6",5.40×10^5 cells
same,BAL macrophage counts,"C57BL/6 mice; high-dose LPS, F-652 4 μg tail vein, day 4, sham 2.72×10^6",1.21×10^5 cells
same,BAL neutrophil counts,"C57BL/6 mice; high-dose LPS, F-652 4 μg tail vein, day 4, sham 8.99×10^5",3.69×10^4 cells
same,BAL lymphocyte counts,"C57BL/6 mice; high-dose LPS, F-652 4 μg tail vein, day 4, sham 213,225","2,163 cells"
same,BAL total cell counts,"C57BL/6 mice; low-dose LPS (33.3 μg intra-tracheal), post-injury day 4, sham 433,889","364,444 cells"
same,BAL lymphocyte count,"C57BL/6 mice; low-dose LPS, F-652 4 μg tail vein, day 4, sham 6,556","1,864 cells"
same,BAL neutrophil count,"C57BL/6 mice; low-dose LPS, F-652 4 μg tail vein, day 4, sham 6,869","1,653 cells"
same,BAL macrophage count,"C57BL/6 mice; low-dose LPS, F-652 4 μg tail vein, day 4, sham 429,262","290,611 cells"
